Test results taken from publication PMC4753561.
Values joined by “and” are separate entries in the source; they are usually repeats but may differ in a detail not shown here. Identical values can stand only once. Like-named read-outs stand apart in the source and are kept apart here.

How the values were obtained:
[1] = target: Hepatitis B Virus core protein assembly domain (Cp149) dimer (Hepatitis B Virus); assay: resistive-pulse sensing
[2] = target: Hepatitis B Virus core protein assembly domain (Cp149) dimer (Hepatitis B Virus); assay: SEC
[3] = target: Hepatitis B Virus core protein assembly domain (Cp149) dimer (Hepatitis B Virus); assay: resistive-pulse sensing; remark: listed apart in the source

## Hepatitis B Virus core protein assembly domain (Cp149) dimer (domain or fragment)
[1]
  pseudo-critical dimer concentration: 0.5 µM
  stoichiometry N: 105 dimers and 77 dimers
[2]
  pseudo-critical dimer concentration: 0.5 µM
[3]
  stoichiometry N: 90 subunit and 120 subunit
